Reference: US20250115669A1, “FGFR1/KLB Targeting Agonistic Antigen-Binding Proteins and Conjugates Thereof with GLP-1R Agonistic Peptides” (SANOFI, priority 2020, published 2025)
Residue numbers refer to the chain shown, from its start. Names and notes keep the numbering of the source.

T1: human beta-Klotho (Homo sapiens, UniProt Q86Z14)
T1 sequence (Q86Z14 1-1044): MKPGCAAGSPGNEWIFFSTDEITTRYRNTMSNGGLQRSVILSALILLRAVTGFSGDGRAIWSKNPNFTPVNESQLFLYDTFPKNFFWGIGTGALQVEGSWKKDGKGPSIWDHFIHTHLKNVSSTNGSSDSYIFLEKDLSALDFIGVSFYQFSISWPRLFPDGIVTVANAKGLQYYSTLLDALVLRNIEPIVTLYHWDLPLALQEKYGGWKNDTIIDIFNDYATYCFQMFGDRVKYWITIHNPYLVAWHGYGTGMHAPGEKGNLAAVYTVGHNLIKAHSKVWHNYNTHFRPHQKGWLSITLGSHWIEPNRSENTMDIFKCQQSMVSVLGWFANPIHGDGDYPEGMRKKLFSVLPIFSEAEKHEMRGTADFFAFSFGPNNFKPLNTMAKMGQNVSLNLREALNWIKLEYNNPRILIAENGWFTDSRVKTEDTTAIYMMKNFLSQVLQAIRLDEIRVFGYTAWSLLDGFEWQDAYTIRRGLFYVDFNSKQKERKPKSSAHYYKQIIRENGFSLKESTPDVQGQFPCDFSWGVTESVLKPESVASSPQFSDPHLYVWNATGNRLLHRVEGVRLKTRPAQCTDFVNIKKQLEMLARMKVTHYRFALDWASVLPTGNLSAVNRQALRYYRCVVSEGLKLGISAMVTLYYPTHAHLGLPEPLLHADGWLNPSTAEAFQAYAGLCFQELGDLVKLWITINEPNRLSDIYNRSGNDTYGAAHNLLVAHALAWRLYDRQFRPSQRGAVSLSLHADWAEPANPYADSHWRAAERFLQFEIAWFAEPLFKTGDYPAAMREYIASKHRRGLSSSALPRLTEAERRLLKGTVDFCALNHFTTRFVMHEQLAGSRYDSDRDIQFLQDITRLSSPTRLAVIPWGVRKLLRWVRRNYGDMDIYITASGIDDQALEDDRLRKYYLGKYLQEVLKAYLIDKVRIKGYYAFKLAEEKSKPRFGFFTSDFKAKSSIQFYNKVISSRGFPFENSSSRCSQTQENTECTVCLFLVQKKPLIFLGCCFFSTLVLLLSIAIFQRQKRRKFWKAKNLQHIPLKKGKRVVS

B1: Ab0356: IgG4 PE; 16H7 VL (N25S, D49E, D50A, D91A, N93S); 16H7 VH (M34V, I83T, D109E) (antibody)
VH: QVTLKESGPVLVKPTETLTLTCTVSGFSLNNARVGVSWIRQPPGKALEWLAHIFSNDEKSYSTSLKSRLTISKDTSKSQVVLTMTNMDPVDTATYYCARSVVTGGYYYEGMDVWGQGTTVTVSS
light: SYVLTQPPSVSVAPGQTARITCGGSNIGSESVHWYQQKPGQAPVLVVYEASDRPSGIPERFSGSNSGNTATLTISRVEAGDEADYYCQVWAGSSDHVVFGGGTKLTVLGQPKANPTVTLFPPSSEELQANKATLVCLISDFYPGAVTVAWKADGSPVKAGVETTKPSKQSNNKYAASSYLSLTPEQWKSHRSYSCQVTHEGSTVEKTVAPTECS
B2: Ab0362: IgG4 PE; 16H7 VL (N25S, D49T, D50E, D91A, N93S); 16H7 VH (M34V, I83T, D109E) (antibody)
VH: B1 VH
light: B1 light with E49T, A50E
B3: Ab0365: IgG4 PE; 16H7 VL (N25A, D49T, D50E, D91A, N93S); 16H7 VH (M34V, I83T, D109E) (antibody)
VH: B1 VH
light: B1 light with S25A, E49T, A50E
B4: Ab0361: IgG4 PE; 16H7 VL (N25S, D49E, D50S, D91E, N93S); 16H7 VH (M34V, I83T, D109E) (antibody)
VH: B1 VH
light: B1 light with A50S, A91E
B5: Ab0359: IgG4 PE; 16H7 VL (N25S, D49E, D50H, D91A, N93S); 16H7 VH (M34V, I83T, D109E) (antibody)
VH: B1 VH
light: B1 light with A50H
B6: Ab0358: IgG4 PE; 16H7 VL (N25S, D49E, D50A, D91H, N93S); 16H7 VH (M34V, I83T, D109E) (antibody)
VH: B1 VH
light: B1 light with A91H
B7: Ab0360: IgG4 PE; 16H7 VL (N25S, D49E, D50H, D91E, N93S); 16H7 VH (M34V, I83T, D109E) (antibody)
VH: B1 VH
light: B1 light with A50H, A91E
B8: Ab0364: IgG4 PE; 16H7 VL (N25A, D49E, D50E, D91E, N93S); 16H7 VH (M34V, I83T, D109E) (antibody)
VH: B1 VH
light: B1 light with S25A, A50E, A91E
B9: Ab0311: IgG4 PE; 16H7 VL (D49Y, D50E, N93E); 16H7 VH (M34V, I83T, D109E) (antibody)
VH: B1 VH
light: B1 light with S25N, E49Y, A50E, A91D, S93E
B10: Ab0301: IgG4 PE; 16H7 VL (N25S, D49Y, D91T); 16H7 VH (M34V, I83T, D109E) (antibody)
VH: B1 VH
light: B1 light with E49Y, A50D, A91T, S93N
B11: Ab0305: IgG4 PE; 16H7 VL (N25S, D49Y, D50E, D91T); 16H7 VH (M34V, I83T, D109E) (antibody)
VH: B1 VH
light: B1 light with E49Y, A50E, A91T, S93N
B12: Ab0357: IgG4 PE; 16H7 VL (N25S, D49E, D50A, D91E, N93S); 16H7 VH (M34V, I83T, D109E) (antibody)
VH: B1 VH
light: B1 light with A91E
B13: Ab0315: IgG4 PE; 16H7 VL (D49Y, D91T, N93E); 16H7 VH (M34V, I83T, D109E) (antibody)
VH: B1 VH
light: B1 light with S25N, E49Y, A50D, A91T, S93E
B14: Ab0363: IgG4 PE; 16H7 VL (N25A, D49S, D50A, D91A, N93A); 16H7 VH (M34V, I83T, D109E) (antibody)
VH: B1 VH
light: B1 light with S25A, E49S, S93A
B15: Ab0298: IgG4 PE; 16H7 VL (N25S, D49Y, D50E); 16H7 VH (M34V, I83T, D109E) (antibody)
VH: B1 VH
light: B1 light with E49Y, A50E, A91D, S93N
B16: Ab0317: IgG4 PE; 16H7 VL (D50E, D91T, N93E); 16H7 VH (M34V, I83T, D109E) (antibody)
VH: B1 VH
light: B1 light with S25N, E49D, A50E, A91T, S93E
B17: Ab0304: IgG4 PE; 16H7 VL (D49Y, D50E, D91T); 16H7 VH (M34V, I83T, D109E) (antibody)
VH: B1 VH
light: B1 light with S25N, E49Y, A50E, A91T, S93N
B18: Ab0303: IgG4 PE; 16H7 VL (N25S, D50E, D91T); 16H7 VH (M34V, I83T, D109E) (antibody)
VH: B1 VH
light: B1 light with E49D, A50E, A91T, S93N
B19: Ab0312: IgG4 PE; 16H7 VL (N25S, D49Y, D50E, N93E); 16H7 VH (M34V, I83T, D109E) (antibody)
VH: B1 VH
light: B1 light with E49Y, A50E, A91D, S93E
B20: Ab0316: IgG4 PE; 16H7 VL (N25S, D49Y, D91T, N93E); 16H7 VH (M34V, I83T, D109E) (antibody)
VH: B1 VH
light: B1 light with E49Y, A50D, A91T, S93E
B21: Ab0310: IgG4 PE; 16H7 VL (N25S, D50E, N93E); 16H7 VH (M34V, I83T, D109E) (antibody)
VH: B1 VH
light: B1 light with E49D, A50E, A91D, S93E
B22: Ab0308: IgG4 PE; 16H7 VL (N25S, D49Y, N93E); 16H7 VH (M34V, I83T, D109E) (antibody)
VH: B1 VH
light: B1 light with E49Y, A50D, A91D, S93E
B23: Ab0318: IgG4 PE; 16H7 VL (N25S, D50E, D91T, N93E); 16H7 VH (M34V, I83T, D109E) (antibody)
VH: B1 VH
light: B1 light with E49D, A50E, A91T, S93E

What follows are molecules tested against T1, human beta-Klotho (assay: SPR off-rate screening of antibody mutants (human beta-Klotho captured by anti-His antibody)). Settings: mean, n=3.
Format: binding
In short: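 Off-rates (kd) were obtained by single exponential fitting of dissociation curves. Mutant antibodies at 50 nmol/L flowed over beta-Klotho held by an immobilized anti-His antibody, with 240 sec association and 300 sec dissociation.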

Row | koff human KLB | Molecule
1 | invalid fit | B1
2 | invalid fit | B2
3 | invalid fit | B3
4 | 0.00163 s⁻¹ | B4
5 | invalid fit | B5
6 | 0.0004541 s⁻¹ | B6
7 | 0.00192 s⁻¹ | B7
8 | 0.00169 s⁻¹ | B8
9 | 0.0013 s⁻¹ | B9
10 | invalid fit | B10
11 | invalid fit | B11
12 | 0.00185 s⁻¹ | B12
13 | invalid fit | B13
14 | invalid fit | B14
15 | 0.0016 s⁻¹ | B15
16 | invalid fit | B16
17 | invalid fit | B17
18 | invalid fit | B18
19 | 0.0005302 s⁻¹ | B19
20 | invalid fit | B20
21 | 0.00116 s⁻¹ | B21
22 | 0.0013 s⁻¹ | B22
23 | invalid fit | B23
